Our source for the Km, kcat and kcat/Km values is article PMC4303301.

Broadly, the Km is the concentration of substrate that gives half-maximal velocity. The kcat is the number of substrate molecules converted per active site and unit of time at saturation. As usually defined, the kcat/Km is the turnover number divided by the Michaelis constant.

Substrate in series [1]: O=P(O)(O)OC[C@@H](O)[C@@H](O)[C@@H](O)CO
The experiment in a line: purified protein. The settings on record: 50 mM Tris-HCl pH 7.5, 1 mM MgCl2, 25 °C.

Substrate in series [2]: O=P(O)(O)OC[C@H](O)[C@H](O)[C@H](O)CO
The experiment in a line: purified protein. The settings on record: 50 mM Tris-HCl pH 7.5, 1 mM MgCl2, 25 °C.

B1: EFI-501083; putative 5-amino-6-(5-phospho-D-ribitylamino) uracil phosphatase (Bacteroides thetaiotaomicron VPI-5482) (protein)
chain: MIKNIVFDFGGVIVDIDRDKAVQAFIKLGLADADTRLDKYHQTGIFQELEEGKLSADEFRKQLGDLCGRELTMEETKQAWLGFFNEVDLRKLDYILGLRKSYHVYLLSNTNPFVMSWACSPEFSSEGKPLNDYCDKLYLSYQLGHTKPAPEIFDFMIKDSHVIPSETLFVDDGSSNIHIGKELGFETFQPENGADWRQELTVILNS
Take B1: in “purified protein [1]”, the Km was found to be 1080 ± 140 µM, the kcat is 1.5 ± 0.1 s⁻¹ and the kcat/Km was 1400 M⁻¹ s⁻¹. In the series “purified protein [2]”, the Km turned out to be 1030 ± 180 µM, the kcat was found to be 1.8 ± 0.1 s⁻¹ and the kcat/Km was 1700 M⁻¹ s⁻¹.
